Source: patent US20200231683A1 (Bristol-Myers Squibb, published 2020)
Substitutions are numbered along the chain they refer to. Values belong to the binder of their own block, whether it stands above or below them.

Tests used:
[1] = molecular target: T1, human CXCR4 (C-X-C chemokine receptor 4) (human, UniProt P61073 1-352); assay: cell-based or functional assay
[2] = molecular target: T1, human CXCR4 (C-X-C chemokine receptor 4); assay: displacement of 100 pM ^125I-CXCL12 from CEM cells
Experimental: The anti-CXCR4 antibodies were serially diluted 1:3 to yield a range of concentrations from 300 nM to 137 pM. […] An irrelevant antibody of the same isotype was used as a negative control.

[3] = molecular target: T1, human CXCR4 (C-X-C chemokine receptor 4); assay: flow cytometry on CEM cells (native human CXCR4), FITC anti-human IgG secondary
Experimental: The antibodies were then mixed with CEM cells and allowed to bind before being detected with a FITC-conjugated anti-human IgG secondary antibody. The cells were then analyzed by fluorescence cytometry.

T1 sequence (P61073 whole entry): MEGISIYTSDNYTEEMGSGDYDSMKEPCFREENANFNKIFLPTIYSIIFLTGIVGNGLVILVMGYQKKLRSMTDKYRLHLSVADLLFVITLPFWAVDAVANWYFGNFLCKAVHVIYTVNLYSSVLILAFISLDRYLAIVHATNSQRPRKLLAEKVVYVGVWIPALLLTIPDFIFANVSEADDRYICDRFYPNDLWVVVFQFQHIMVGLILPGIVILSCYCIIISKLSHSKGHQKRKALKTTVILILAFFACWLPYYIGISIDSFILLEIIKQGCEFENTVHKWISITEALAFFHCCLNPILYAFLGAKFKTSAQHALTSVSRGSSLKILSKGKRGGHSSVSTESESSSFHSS

EC50 for inhibition of CXCL12-induced calcium flux in CEM cells [1]: 0.57 nM
EC50 [2]: 28.6 nM
EC50 [3]: 80 nM
B1: D1 human anti-CXCR4 monoclonal antibody (antibody, V domains shown)
VH: EVQLVQSGGGLVQPGGSLRLSCAAAGFTFSSYSMNWVRQAPGKGLEWVSYISSRSKTIYYADSVKGRFTISRDNARNSLYLQMNSLRDEDTAVYYCARDYGGQPPYYYYYGMDVWGQGTTVTVSS
VL: VIWVTQSPSSLSASVGDRVTITCRTSQGISSWLAWYQQKPEKAPELLIYAASSLQSGVPSRFSGSGSGTDFTLTISSLQPEDFATYYCQQYNSYPRTFGQGTKVEIK

EC50 [3]: 290 nM
B2: E2 human anti-CXCR4 monoclonal antibody (antibody, V domains shown)
VH: B1 VH with K56R, R76K, Y107H
VL: B1 VL with V1E, W3V, V4L, T25A, S31N, E45K, L46S
